Results: patent publication US10246721B2, “Sugar transporters” (CARNEGIE INSTITUTION OF WASHINGTON, priority 2009, dated 2019)
“Also recorded” adds a separate entry of the source.

T1: SWEET1 (Arabidopsis thaliana, UniProt Q8L9J7)
T1 sequence (Q8L9J7 1-247): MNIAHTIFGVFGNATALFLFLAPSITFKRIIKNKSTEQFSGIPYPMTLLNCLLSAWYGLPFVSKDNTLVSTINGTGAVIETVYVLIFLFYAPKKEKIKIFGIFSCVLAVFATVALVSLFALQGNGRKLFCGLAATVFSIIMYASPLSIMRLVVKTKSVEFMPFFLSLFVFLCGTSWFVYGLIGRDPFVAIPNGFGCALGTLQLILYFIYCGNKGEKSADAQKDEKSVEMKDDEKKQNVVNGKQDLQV

T2: SGLT1 (Homo sapiens, UniProt P13866)
T2 construct: The ORF of SGLT1 (Invitrogen, Carlsbad, Calif.) was amplified by PCR and cloned into pCR2.1-TOPO; host or cells: Xenopus laevis oocytes injected with cRNA from pOO2
T2 sequence (P13866 1-664): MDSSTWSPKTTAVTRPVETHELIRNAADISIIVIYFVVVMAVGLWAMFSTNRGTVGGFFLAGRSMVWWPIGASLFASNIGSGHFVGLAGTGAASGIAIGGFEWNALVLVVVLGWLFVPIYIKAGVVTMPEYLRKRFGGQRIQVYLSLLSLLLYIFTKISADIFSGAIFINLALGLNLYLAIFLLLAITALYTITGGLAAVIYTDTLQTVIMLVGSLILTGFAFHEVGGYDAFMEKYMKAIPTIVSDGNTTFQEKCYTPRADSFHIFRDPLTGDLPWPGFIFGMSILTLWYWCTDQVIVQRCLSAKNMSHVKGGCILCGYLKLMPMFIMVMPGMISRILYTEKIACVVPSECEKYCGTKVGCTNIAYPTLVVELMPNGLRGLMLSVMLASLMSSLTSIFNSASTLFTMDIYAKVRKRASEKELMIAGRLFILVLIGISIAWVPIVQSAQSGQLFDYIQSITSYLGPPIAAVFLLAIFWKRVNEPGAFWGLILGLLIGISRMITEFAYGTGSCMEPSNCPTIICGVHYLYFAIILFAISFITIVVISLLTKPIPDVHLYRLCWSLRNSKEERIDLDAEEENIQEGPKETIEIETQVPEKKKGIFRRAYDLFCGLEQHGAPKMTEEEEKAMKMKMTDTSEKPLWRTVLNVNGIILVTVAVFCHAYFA


What was measured:
SWEET1 [1] = target: T1, SWEET1; test: Inhibition of SWEET1-mediated glucose uptake in yeast EBY4000 by competing sugars; format: cell-based; set-up: SWEET1, SWEET8 and OsSWEET11 ORFs were amplified by RT-PCR using specific primers from Arabidopsis and rice, respectively; conditions: 5 mM D-glucose; competitor at 10-fold excess (50 mM)
Description: Competitors were added at 10-fold excess (final concentration 50 mM). Relative activity was normalized to D-glucose uptake rate [100%]. Data are mean±S.D.
Yeast uptake. Yeast cells were grown in SD medium supplemented 2% maltose and auxotrophic markers. Cells were harvested at OD600 0.5-0.7 by centrifugation, and washed twice in ice-cold distilled water. Cell pellets were weighed after the supernatant had been removed. Cells were resuspended 5-10% (w/v) in 40 mM potassium phosphate buffer, pH 6.0. Cells were pre-incubated in potassium phosphate buffer for 5 min at 30° C. For each reaction, 330 μl pre-warmed buffer containing 20 mM glucose (0.55 μCi D-[U-^14C] glucose; 590 KBq/μmol, Amersham Pharmacia Biotech Inc.) was added to an equal volume of cells. 120 μl aliquot were withdrawn and transferred to the ice-cold water. Cells were harvested by vacuum filtration onto a glassfiber filters (GF/C, Whatman), and washed twice in 10 ml ice-cold water. Filters were transferred to scintillation vials containing 5 ml of Ultima Gold XR Scintillator liquid (Perkin Elmer). Radioactivity taken up by the cells was measured by liquid scintillation spectrometry. To determine substrate specificity for SWEET1 compared to D-glucose, a ten-fold excess of competing sugar species was used. To determine the pH-dependence of SWEET1 activity, 40 mM potassium phosphate uptake buffer at specified pH was used. […]

SWEET1 [2] = target: T1, SWEET1; test: FRET glucose sensor FLIPglu600μΔ13V co-transfected with SWEET1 in HEK293T cells, cytochalasin B; format: cell-based; set-up: SWEET1, SWEET8 and OsSWEET11 ORFs were amplified by RT-PCR using specific primers from Arabidopsis and rice, respectively; expressed in transfected cells; host or cells: HEK293T; conditions: 20 μM cytochalasin B
Description: Similar results were obtained for several Arabidopsis paralogs of this gene family.
FRET analysis. Cell culture, transfection, image acquisition and FRET analysis were performed as described previously.
To identify novel glucose transporters from the reference plant Arabidopsis, genes encoding uncharacterized polytopic membrane proteins from the plant membrane protein database Aramemnon, available on the internet at “aramemnon.botanik.uni-koeln.de”,—were screened using a mammalian expression system. Candidate genes were coexpressed with a high-sensitivity FRET glucose sensor (i.e. FLIPglu600μΔ13V) in human embryonic kidney HEK293T cells, which are characterized by low endogenous glucose uptake activity. […] To determine whether SWEET1 can also mediate efflux from the cytosol, we expressed the FRET glucose sensor FLIPglu600μΔ13V^ER in the lumen of the endoplasmic reticulum (ER; FIG. 9B). Topologically, uptake across the plasma membrane (PM) is initiated from the extracellular side of the carrier, while ‘export’ to the ER is initiated from the cytoplasmic side of the transporter (FIG. 9C). […] SWEET1 may thus function as a glucose uniporter, for which the direction of transport depends only on the glucose gradient across the membrane. […]

Xenopus oocytes [3] = test: Tracer [14C]-glucose uptake in Xenopus oocytes; format: cell-based, Xenopus laevis; conditions: 1 mM D-glucose, 1 h
Description: Xenopus oocytes isolation and RNA injection. After linearization of the pOO2 plasmids with MluI, capped cRNAs were synthesized in vitro by SP6 RNA polymerase using mMESSAGE mMACHINE kit (Ambion, Inc., Austin, Tex.). Xenopus laevis oocytes were kindly provided by M. Goodman (Stanford University). Microinjection was carried out as described by Ballatori et al.. 25 ng to 50 ng of each cRNA was injected into healthy-looking oocytes (RNAse-free water was used as control). The injected oocytes were then maintained at 18° C. in modified Barth's saline (MBS: (in mM) 88 NaCl, 1 KCl, 2.4 NaHCO3, 0.82 MgSO4, 0.33 Ca(NO3)2, 0.41 CaCl2, and 20 HEPES-Tris, pH 7.5) with 100 μM gentamycin, 100 U/ml penicillin and 100 μM streptomycin solution for 2-3 d. The incubation buffer was changed once per day.
Tracer uptake in Xenopus oocytes. The assay was performed with modification as described in Detaille et al. Two days after injection, groups of 7 to 16 oocytes were transferred into tubes containing 200 μL MBS and 1 mM D-glucose (4 μCi/ml D-[^14C(U)]-glucose; 319 mCi/mmol, PerkinElmer). After incubation at 20° C. for one hour, and the cells were washed by adding 1 ml ice-cold MBS. Incubation was stopped by adding ice-cold MBS buffer. The ooctyes were washed three times in ice-cold MBS buffer. The cells were solubilized with 100 μl 1% (w/v) SDS, and measured individually. […]

SGLT1 = target: T2, SGLT1; test: Coexpression with SGLT1 in Xenopus oocytes, glucose accumulation; format: cell-based; conditions: coexpressed with SGLT1
Source text: Data are mean±SE, n=7. Inset indicates concentrative uptake of glucose by SGLT 1 and glucose efflux (‘leak’) caused by OsSWEET11.
All experiments were repeated independently at least 6 times. Error bars are means±SD.
Human SGLT1 sodium glucose cotransporter (“S”) which has been previously shown to be a secondary active glucose importer. SGLT1 is […] expressed in Xenopus oocytes and can mediate uptake of 14C labelled glucose into the oocyte. When RAG1AP1 (“R”) is coexpressed, less uptake is seen in the oocytes. This is compatible with a glucose ‘leak’ due to RAG1AP1 activity that prevents high accumulation of glucose in the SGLT1 expressing cells.
Tracer uptake in Xenopus oocytes. The assay was performed with modification as described in Detaille et al. Two days after injection, groups of 7 to 16 oocytes were transferred into tubes containing 200 μL MBS and 1 mM D-glucose (4 μCi/ml D-[^14C(U)]-glucose; 319 mCi/mmol, PerkinElmer). After incubation at 20° C. for one hour, and the cells were washed by adding 1 ml ice-cold MBS. Incubation was stopped by adding ice-cold MBS buffer. The ooctyes were washed three times in ice-cold MBS buffer. The cells were solubilized with 100 μl 1% (w/v) SDS, and measured individually.
The ORF of SGLT1 (Invitrogen, Carlsbad, Calif.) was amplified by PCR and cloned into pCR2.1-TOPO (Invitrogen). […]

[4] = 14C glucose uptake data for C. elegans homologs (FIG. 42); format: cell-based; conditions: 1 mM and 10 mM glucose
Source text: FIGS. 42A and 42B show the 14C glucose uptake data for five of the C. elegans homologs.
At least 3, 4 nd 5 are active. (code for names of C elegans genes:Ce1: C06G8.1; Ce2: K06A4.4; Ce3: Y39A1A.8; Ce4: K11D12.5; Ce5: K02D7.5; (worm mutants of Ce5: K02D7.5 show increased fat accumulation, consistent with reduced efflux of glucose from these cells).

Xenopus oocytes [5] = test: Tracer efflux assay in Xenopus oocytes injected with [14C]-glucose; format: cell-based, Xenopus laevis; conditions: S.E., n>7
Description: 50 nl of 10 mM radiolabeled glucose (0.18 μCi/μl) were injected and radiotracer efflux was measured over time. Data are mean±SE (n>10 cells).
Tracer efflux assay in Xenopus oocytes. Efflux was measured essentially as described. Three days after cRNA injection, oocytes were injected with 50 nl solution containing 10 mM D-glucose with 0.18 μCi/μl D-[^14C(U)]-glucose. Cells were immediately washed once in MBS. At defined time points, the reaction buffer (950 μl) was removed for scintillation counting and replaced with fresh medium. Finally, the oocytes were solubilized with 1% SDS and analyzed for radioactivity.
The ORF of SGLT1 (Invitrogen, Carlsbad, Calif.) was amplified by PCR and cloned into pCR2.1-TOPO (Invitrogen). The SGLT1 ORF was excised with EcoRI/XhoI and cloned into the corresponding sites in pOO2. The splice variant RAG1AP1-1 in pDNR-LIB (Clone ID: 4076256, Open Biosystems, Huntsville, Ala.) was restricted with EcoRI/XhoI and cloned into pOO2. RAG1AP1-2 in pCMV-SPORT6 (Clone ID: 3896154, Open Biosystems, Huntsville, Ala.) was transferred into the pOO2-GW (D. Loqué, unpublished) by in vitro LR recombination (Gateway). RAG1AP1-3aa was mutated to Y216A, L218A, L219A (putative internalization motifs) by site-directed mutagenesis and cloned by in vitro BP recombination in pDONR221-f1 and further mobilized into pOO2-GW by LR reaction. […]

| Molecule | [14C]-glucose uptake into Xenopus oocytes (Xenopus oocytes [3]) | effect of coexpression on SGLT1-mediated glucose accumulation in oocytes (SGLT1) | other results |
| --- | --- | --- | --- |
| CO[C@@H]([C@H](O)[C@H](O)CO)[C@@H](O)C=O [3-O-methylglucose] | – | – | inhibition of SWEET1-mediated glucose uptake by competitor sugar (SWEET1 [1]): marginally inhibited |
| C=C1[C@@H](C)[C@H]2[C@H](Cc3ccccc3)NC(=O)[C@]23OC(=O)/C=C/[C@H](O)CCC[C@@H](C)C/C=C/[C@H]3[C@@H]1O [cytochalasin B] | – | – | effect of cytochalasin B on SWEET1 (GLUE1)-mediated glucose uptake (SWEET1 [2]): insensitive; also recorded: did not affect; also recorded: insensitivity |
| CeSWEET1: C. elegans SWEET homolog (protein, UniProt O45102 1-299, looked up) Sugar transporter SWEET1: MLEVVLQVLSISAITTTIALFFCGIPICMQIRRQGAVGDISGVPFLMGVLGGSFWLRYGLLKMDYVMIIVNVVGVACMAFYCVFFLIYSLPKKTFTCQLILVTSTIGGMVLWIALKPNLDYLGVICMTFNIMNFGAPLAGLGVVLKNREVSTLPLPMCVANFLVSSQWCLYGNLVSDIYIIIPNGIGMFLAIVQLALFVVLPIRENEKSPLEKLASWFTGRDSKVKDLERGDCIVSSPPSSPQKVPNETRSDVEDKFDKLMAETSSTIPSDSRRGSMGSPPSYKSRSSSDPDLSSIQSP | mediates glucose uptake; also recorded: weak, but significant glucose uptake | counteract secondary active glucose accumulation | 14C glucose uptake activity [4]: active |
| RAG1AP1: human homolog of the SWEET sugar transporters (SLC50) (protein) MEAGGFLDSLIYGACVVFTLGMFSAGLSDLRHMRMTRSVDNVQFLPFLTTEVNNLGWLSYGALKGDGILIVVNTVGAALQTLYILAYLHYCPRKRVVLLQTATLLGVLLLGYGYFWLLVPNPEARLQQLGLFCSVFTISMYLSPLADLAKVIQTKSTQCLSYPLTIATLLTSASWCLYGFRLRDPYIMVSNFPGIVTSFIRFWLFWKYPQEQDRNYWLLQT | unable to mediate glucose accumulation | less uptake; also recorded: counteract secondary active glucose accumulation; also recorded: counteracted SGLT1-mediated glucose accumulation | % glucose released within 2 min (Xenopus oocytes [5]): 5.27±0.29% |
